Source: the nanobody polyreactivity screen of Harvey et al. (2022)

Assay: yeast display, Sf9 membrane polyspecificity reagent, FACS + sequencing; frameworks hold sequencing errors
How it was run: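 Genes from sorted yeast were amplified by colony PCR, read by MiSeq 2 × 250 sequencing and filtered on CDR length. These cells carried a synthetic nanobody library in Saccharomyces cerevisiae BJ5465 and were sorted by FACS into low and high (top ~1%) gates on anti-HA and streptavidin fluorescence. Polyreactivity is labelled according to the gate of origin.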

Row | Sequence | polyreactivity (PSR sort gate)
1 | QVQLVESGGGLVQAGGSLRLSCAASGRTFGSNAMGWYRQAPGKERELVAAISSSDSTNYADSVKGRFTISRDNAKNTVYLQMNSLKPEDTAVYYCNAGHPVRSPGYDYWGQGTQVTVSS | low polyreactivity
2 | QVHLVESGGGLVQAGGSLRLCCAASGITFQVYAKGCYRPAPGKERELVAAINWSGTRTYYADSVKGRFTISRDNAKNTVYLQMNSLKPEDTAVYYCAAAERSLGYYYWGQGTQVTVTS | high polyreactivity
3 | EVQLEESGGGLVQAGGSLRLSCPASGLIFGLYAMGWYRQAPGKERELVAAISYRTDSTYADSVKGRFTISRDNAKNTFYLQKNSLIPEDTAVYYCAADLRVSVGYYYWGQGTQVTVSS | low polyreactivity
4 | QVQLVESGGGLVQAGGSLRLSCAASGSTFSKNAMGWYRQAPGKERELVAAINWSTGSTHYADSVKGRFTISRDNAKNTVYLQMNRLKPEDTAVYYCAAEGPKQYDYWGQGTQVTVSS | low polyreactivity
5 | QVQLVESGGGLVQAGGGLRLSCAASGRIFAGYAMGWYRQAPGKEREFVAAISRSGVSTYYADSVKGRFTISRDNAKNTVYLQMNSLKPEDTAVYYCNVYKGNVVEHDYWGQGTQVTVSS | high polyreactivity
6 | QVQLVESGGGLVQAGGSLRLSCAASGSIFVYYGMGWYRQAPGKERELFAAISSGGSTHYADSVKGRFTISRDNAKNTVYLQMNSLKPEDTAVYYCAADRFFWLRSYPRYYYWGQGTQVTVSS | low polyreactivity
7 | QVQLVESGGGLVQAGGSLRLSCAASGIISRYYAMGWYRQAPGKERELVASISSGVGTNYADSVKGRFTISRDNAKNTVYLQMNSLKPEDTAVYYCAARFRYYRHYYWGQGSQVTVSS | high polyreactivity
8 | QVQLVESGGGLVQAGGSLRLSCAASGRIFGRYAMGWYRQAPGKERELVASIRSRGGSTYYADSVKGRFTISRDNAKNTVYLQMNSLKPEDTAVYYCAADGTRSYKGYYWGQGTQVTVSS | high polyreactivity
9 | QFQLVESGGGLVQAGGSLRLSCAASGRIFNYYAMGWYRQAPGKERELVAAISARGGSTYYADSVKGRFTISRDNAKNTVYLQMNSLKPEDTAVYYCAVSSGSYGYGYWGQGTQVTVSS | high polyreactivity
10 | QVQLVETGGGLVQARGSLRLSCAASGRTFYKYAMGWYIQAPGKERELVAAISSDGTTYYADSVKGRFTISRDNAKNTVYLQMNRLKPVDTAVYYFAADPPPPFLYVSVQEYDYWGQGTQVTVSS | low polyreactivity
11 | QVQLVESGGGLVQAGGSLRLSCAASGIIFINYAMGWYRQAPGKEWELVAAITSSGGSTYYADSVKGRFTISRDNAKNTVYLQMNSLKPEDTAVYYCAAVSSYWGQGTQVTVSS | low polyreactivity
12 | QVQLVESGGGLVQAGGSLRLSCAASGFIFRYYAMGWYRQAPGKERELVAAISRIGGSSYYADSVKGRFTISRDNAKNTVYLQMNSPKPEVTAVYYCAVAEGYYPAYLRDYWGQGTQVTVSS | high polyreactivity
13 | QVQLVESGGGLVQAGGSLRLSCAASGRIFYYNAMGWYRQAPGKERELVAAITRSGSTNYADSVKGRFTISRDNSKNSVYLQMNSLKPEDTAVYYCAAPWRGSVFRYYSWGQGTQVTVSS | low polyreactivity
14 | QVQLVESRGGLVQAGGSLRLSCAASGSIFPFYAKGWYRQAPGKEREFVASISSGGSTNYADSVKGRFTISRDNAKNTVYLQMNSLKPEDTAVYYCNADVPYRWDTWFQVVYPESYDYWGQGTQVTVSS | low polyreactivity
15 | QVQLVESGGGLVQAGGSLRLSCAPSGSIFPYYAMGWYRQAPGKERELVAVITTSGGRTYYADSVKGRFTISRDNAKNTVYLQMNSLKPEDTAVYYCATDVRQGSGWRYYYWGQGTQVTVSS | high polyreactivity
16 | QVQLVESGGGLVQAGRSLRLNCAASGSIIKYNAMGWYRPAPGKERELVASISSSGGTTYYADSVKGRFTISRDNAKNTVYLQMNRLTPEDTAVYYCTKYVRAGNGYGEEDYWGQGTQVTVSS | high polyreactivity
17 | QVQLVESGGGLVQAGGSLRLSCAASGLIIYYYAMGWYRQAPGKERELVAAISINGGSTYYADSVKGRFTISRDNAKNTVYLQMNSLIPEDTAVYYCAAFRRRMEYWGQGTQVTVSS | high polyreactivity
18 | HVQLVESGGGLVQAGGSLRLSCAASGSIFAQYAMGWYRQAPRKDRELLAAISRSTGRTYYADSVKGRFTISRDNAKNTVYLQMNSLKPEDNAVYYWNVVANRALSRSGYDYWGQGTQVTVSS | high polyreactivity
19 | QVQLVESGGGLVQAGGSLRLSCAASGRIFRYNVMGWYRQAPGKERELVAAITSRGGSTYYADSVKGRFTISRDNAKNTVYLQMNSLKPEDTAVYYCAAYPWEFGTYNYWGQGTQVTVSS | high polyreactivity
20 | QVQLVESGGGLVQAGGSLRLSCAASGNIFDEYTMGWYRQAPWKERELVAAINSGGSTDYADSVKGRFTISRDNAKNTVYLQMNSLKPEDTAVYYCARDVWPTKIQQQPGYGRGEYWGQGTQVTVSS | low polyreactivity
21 | QVQLVESGGGLVQAGGSLRLSCAASGFIFVRYAMGWYRQAPGKERELVAAITRSGTSTYYADSVKGRFTISRDNAKTTVNLQMNSLKPEDTAVYYCAKEVRSRYGYWGQGTQVTVSS | high polyreactivity
22 | QVQLVESGGGLVQAGGTLRLSCAPSGSIFRVYTMGWYRQAPGKERELVATISRSGVSTNYADSVKGRFTISRDNAKNTVYLQMNSLKPEDTAVYYCNAYYRTKGGFRFGYWGQGTQVTVSS | high polyreactivity

Row | Sequence | polyreactivity (PSR sort gate)
23 | QVQLVESGGGLVQAGGSLSLSCAASGRTFSGNAMGWYRQAPGKERELVAAINWRGGRTYYADSVKGRFTISRDNAKNTVYLQMNSLKPEDTAVYYCAAVYVFHRYIYSLYDYWGQGTQVTVSS | high polyreactivity
24 | QVQLVESGGGLVQAGGSLRLSCAASGRIFGYYAMGWYRPAPGKEMELVAAIRYSSGRTYYADSVKGRFTISRDNAKNTVYLQMNSLKPEDTAVYYCAAKDQATYQLNYWGQGTQVTVSS | high polyreactivity
25 | QVQLVESGGGLVQAGGSLRLSCAASGLIFFWYTMGWYRKAPGKERELVAAIDSGGSTYYADSVKGRFTISRDNAKNTVYLQMNSLKPEDTAVYYCNADPGWGIYDDYWVQGTQVTVSS | high polyreactivity
26 | QVQLVESGGGLVQAGGSLRLSCAASGRTFRKYAMGWYRQAPGKERELVAAISWSGGSTYYANSVKGRFTISRDNAKNTVYLQMNSLKPEDTAVYYCAAVPVHTGSLYWGFTTGYDYWGQGTQVTVSS | low polyreactivity
27 | QVQLVESGGGLVQAGGSLRLSCAAYGFIFRNYAMGWDRQAPGKERELVAAITWRGGSTYYADSVKGRFTISRDNAKNTVYLQMNSLKPEDTAVYYCAARGYRSREDYWGQGTQVTVSS | high polyreactivity
28 | QVQLVESGGGLVQAGGSLRLSCAASGSIFRGNAMGWYRQAPGKERELVASISKGGGSTDYADSVKGRFIISRDNAKNTVYLQMNSLKPEDNAVYYCNKDYDRPDYYYWGQGTQVTVSS | low polyreactivity
29 | QDQLVESGGGLVQAGGSLRLTCAASGFTIWYYAMGWYRQAPGKERELVAAISSVSSTKYADSVKGRFTISRDNAKNTVYFQMNSLKPEDTAVYYCAADIVRYWRHGFGWRRYDYWGQGTQVTVSS | high polyreactivity
30 | QVQLVESGGGLVQAGGSLRLSCAASGFIFDIYAMGGYRPAPGKERELVAAISSGGSTNYADSVKGRFTISRDNAKNTVYLQMNSLKPEDTAVYYCAADRSDLAEEGYAGYDYWGQGTQVTVSS | low polyreactivity
31 | QVQLVESGGGLVQAGGSLRLSCAASGFTFYDYAMGRYIQAPGKERELVAGINSGDSTYYADSVKGRFTISRDNAKNSVYLLMNSLKPEDSAVYYCAADWAWLQWAYDYWGQGTQVTVSS | low polyreactivity
32 | QVQLVESGGGLVQAGGSLRISCAASGSIFYLYTIGWYRQAPGKERELVAAITSGGSTNYADSVKGRFTISRDNAKNTVYLQMNSLKPEDTAVYYCAAEYFDWWVTYDYWGQGTQVTVSS | high polyreactivity
33 | QVQLVESGGGLVQAGGSLRLSCAASGRIFSYYAMGWYRQAPGKERELVAAISRTGGTTYYADSVKGRFTISRDNAKNTVYLQMNSLNPEDTAVYYCYAVKAPYMRYDYWGQGTQVTVSS | high polyreactivity
34 | QVQLVESGGVLVQAGGSLRLSCAASGFTFNYYVMGWYRQAPWKERELVATITSVGSTYYADSVKGRFTISRDNAKNTVYLQMNSLKPEDTAVYYCNADWYWRVYWGQGTQVTVSS | high polyreactivity
35 | QVQLVESGGGLVQAGGSLRLSCAASGLIFDTYAMGWYRQAPGKEREWVADITWSGGSTYYADSVKGRFTISRDNAKNTVYLQMNSLKPEETAVYYCAADSVSLFYWDQRYPDEYDYWGQGTQVTVSS | low polyreactivity
36 | QVQHVESGGGLVQAGGSLRLSCAASGRIFYFNAMGWYRPAPGKERELVAAISSSSGSTNYADSVQGRFTISRDNAKNTVYLQMNSLKPEATAVYYCAADGYYQDYTFEYDYWGQGTQVTVSS | low polyreactivity
37 | QVQLQESGGGLVQAGGSLRLSCAASGYISIGRRMGWYRQAPGKERELVAGINGGGSTNYADSVKGRSTISRDNAKNTVYLQMNSLKPEDTAVYYCAAYVYDYDWYKYWGQGTQVTVSS | high polyreactivity
38 | QVQLVESGGGLVQAGGSLRLSCAASGRIFAYYTMGWYRQAPGKERELVAAISGSSGRTYYADSVKGRFTISRDNAKNTVYLQMNSLKPEDTAVYYCAARGFSFWRYYYWGQGTQVTVSS | high polyreactivity
39 | QVQLVESGGGLVQAGGSLRLSCAASGFTFPRYAMGWYRQAPGKERELVAAITVGGGRTYYADSVKGRFTISRDNAKNTVYLQMNSLKPEDTAVYYCAADSHASTYDYWGQGTQVTVSS | low polyreactivity
40 | QVQLVESCGGLVQAGGSLRLSCAASGYIFVNYAMGWYRQAPGKQRELVARITGSGGSTDYADSVKGRFTISRDNAKNTVYLQMNSLKPEDTAVYYCNTKYVRYLRYYTYKYWGHGTQVTVSS | low polyreactivity
41 | QVQLVESVGGLVQAGGSLRLSCAASGSIFGPNAMGWYRQAPGKERELVAAISLSTGSTYYADSVKGRFTISRDTAKNTVYLQMNSLKPEDTAVYYCAAYYVTPIYYYWGQGTQVTVSS | low polyreactivity
42 | QVQLVESGGGLVQAGGSLRLSCAASGFIFFYAMGWYRQAPGKERELVASIDSGVSTDYADSVKGRFTISRDNAKNTDYLQMNSLKTEDTAVYYCAADYRAPLEYWGQGTQVTVSS | low polyreactivity
43 | QVQLVESGGGLVQAGGSLRLSCAASGSIFPHYAMGWYRQAPGKERELVAAISRGGSTNYADSVKGRFTISRDNAKNTVYLQMNSLKPEDTAVYYCAAQGNRYANDYWGQGTQVTVSS | high polyreactivity
